Patent US20240269312A1, “ANTIBODY DRUG CONJUGATE, AND PREPARATION METHOD THEREFOR AND USE THEREOF” (SICHUAN KELUN-BIOTECH BIOPHARMACEUTICAL CO., LTD., priority 2021, published 2024)
Blank lines part the entries; values can stand above or below the molecule they belong to.

Legend:
human ROR1 ECD protein [1] = target: human ROR1 ECD protein (Homo sapiens, UniProt Q01973); test: Dynamic affinity determination by Octet ForteBio; assay type: binding; conditions: for kdis / kon: 1:1 kinetic binding model, UC961 value is an average of three determinations
Procedure: The dynamic affinities of 19F6_Hu35V1, 3D8_HuC24, 38F8_Hu57 and the positive control PGP-1501 antibody UC961 to human ROR1 ECD protein were determined by Octet ForteBio method. The specific experimental steps were as follows: the anti-human IgG Fc AHC probe (ForteBio) was first bound to the antibody to be tested to a response signal value of 0.8-1.2 nm, and the dynamic affinity was measured by immersing the antibody-coated probe into wells containing human ROR ECD protein at different concentrations (16, 8, 4, 2, 1, 0.5, 0.25, and 0 μg/mL), the binding was conducted for 2-4 minutes, followed by dissociation for 4-6 minutes, 1:1 kinetic binding model was used for all fitting analysis.

[2] = target: human ROR1 (on the cell surface) (human) (UniProt Q01973); test: flow cytometry, Ba/F3-ROR1 cells, D10 as detection antibody
[3] = target: T1, human ROR1 (on the cell surface) (human, UniProt Q01973 30-937); test: flow cytometry, A549 cells
T1 construct: whole, on cells; Ba/F3 cells carry it by lentiviral transduction; also called Ba/F3-ROR1; ROR1 on the surface of human cells
Procedure: (§1) The affinities of 19F6_Hu35V1, 3D8_HuC24 and 38F8_Hu57 to ROR1 on the surface of human cells were determined by flow cytometry.
(§2) In addition to Ba/F3-ROR1 overexpression cells, human mantle cell lymphoma cell line Jeko-1 (Nanjing Cobioer Biosciences), human colon cancer cell line HT-29 (the Cell Bank of the Chinese Academy of Sciences), human lung cancer cell line A549 (the Cell Bank of the China Academy of Sciences) were also used for flow cytometry analysis. Anti-ROR1 antibody UC961 (the VH and VL of antibody UC961 were SEQ ID NO: 5 and 6 disclosed in WO2018237335A1, respectively) and anti-TNP antibody were used as positive control and negative control, respectively. Ba/F3-ROR1, Jeko-1, HT-29 and A549 cells were incubated with different concentration gradients of the purified humanized antibodies on ice for 30 minutes, respectively, washed with flow buffer (PBS+2% FBS) twice, then incubated with goat anti-human fluorescent secondary antibody (Jackson ImmunoResearch) on ice for 30 minutes, and finally loaded on the machine for detection.

[4] = target: T1, human ROR1 (on the cell surface); test: flow cytometry, Ba/F3-ROR1 cells
Procedure: as §1, §2

[5] = target: T1, human ROR1 (on the cell surface); test: flow cytometry, HT-29 cells
Procedure: as §1, §2

[6] = target: T1, human ROR1 (on the cell surface); test: flow cytometry, Ba/F3-ROR1 cells; remark: listed apart in the source
Procedure: as §1, §2

[7] = target: T1, human ROR1 (on the cell surface); test: flow cytometry, Jeko-1 cells
Procedure: as §1, §2

[8] = target: T1, human ROR1 (on the cell surface); test: flow cytometry, Jeko-1 cells; remark: listed apart in the source
Procedure: as §1, §2

[9] = target: T1, human ROR1 (on the cell surface); test: flow cytometry, A549 cells; remark: listed apart in the source
Procedure: as §1, §2

human ROR1 ECD protein [10] = target: T2, human ROR1 ECD protein (human, UniProt Q01973 30-406); test: BLI (Octet ForteBio), antibody on AHC probe, ROR1 ECD in solution, 1:1 model; average of three determinations
T2 construct: extracellular domain; also called human ROR ECD protein

[11] = target: T1, human ROR1 (on the cell surface); test: flow cytometry, Jeko-1 cells; remark: listed apart in the source
[12] = target: T1, human ROR1 (on the cell surface); test: flow cytometry, HT-29 cells; remark: listed apart in the source
Procedure: as §1, §2

[13] = target: T1, human ROR1 (on the cell surface); test: flow cytometry, Ba/F3-ROR1 cells; remark: listed apart in the source
Procedure: as §1, §2

[14] = target: T1, human ROR1 (on the cell surface); test: flow cytometry, A549 cells; remark: listed apart in the source
Procedure: as §1, §2

[15] = target: T1, human ROR1 (on the cell surface); test: flow cytometry, HT-29 cells; remark: listed apart in the source
Procedure: as §1, §2

human ROR1 ECD protein [16] = target: T2, human ROR1 ECD protein; test: BLI (Octet ForteBio), antibody on AHC probe, ROR1 ECD in solution
Procedure: The dynamic affinities of 19F6_Hu35V1, 3D8_HuC24, 38F8_Hu57 and the positive control PGP-1501 antibody UC961 to human ROR1 ECD protein were determined by Octet ForteBio method.

Chain of human ROR1 ECD protein (Homo sapiens, UniProt Q01973) (Q01973 30-406 limits assumed): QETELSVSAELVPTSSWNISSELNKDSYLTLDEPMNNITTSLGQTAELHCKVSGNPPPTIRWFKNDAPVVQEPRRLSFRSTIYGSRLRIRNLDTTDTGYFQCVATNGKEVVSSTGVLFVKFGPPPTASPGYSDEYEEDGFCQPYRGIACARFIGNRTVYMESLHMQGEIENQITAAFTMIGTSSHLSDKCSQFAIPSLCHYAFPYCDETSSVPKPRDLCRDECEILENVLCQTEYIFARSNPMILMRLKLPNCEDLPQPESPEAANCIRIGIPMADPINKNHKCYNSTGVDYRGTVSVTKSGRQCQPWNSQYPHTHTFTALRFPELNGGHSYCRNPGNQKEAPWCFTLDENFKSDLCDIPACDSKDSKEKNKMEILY
T2 sequence (Q01973 30-406): as the sequence (Q01973 30-406 limits assumed) above
T1 sequence (Q01973 30-937): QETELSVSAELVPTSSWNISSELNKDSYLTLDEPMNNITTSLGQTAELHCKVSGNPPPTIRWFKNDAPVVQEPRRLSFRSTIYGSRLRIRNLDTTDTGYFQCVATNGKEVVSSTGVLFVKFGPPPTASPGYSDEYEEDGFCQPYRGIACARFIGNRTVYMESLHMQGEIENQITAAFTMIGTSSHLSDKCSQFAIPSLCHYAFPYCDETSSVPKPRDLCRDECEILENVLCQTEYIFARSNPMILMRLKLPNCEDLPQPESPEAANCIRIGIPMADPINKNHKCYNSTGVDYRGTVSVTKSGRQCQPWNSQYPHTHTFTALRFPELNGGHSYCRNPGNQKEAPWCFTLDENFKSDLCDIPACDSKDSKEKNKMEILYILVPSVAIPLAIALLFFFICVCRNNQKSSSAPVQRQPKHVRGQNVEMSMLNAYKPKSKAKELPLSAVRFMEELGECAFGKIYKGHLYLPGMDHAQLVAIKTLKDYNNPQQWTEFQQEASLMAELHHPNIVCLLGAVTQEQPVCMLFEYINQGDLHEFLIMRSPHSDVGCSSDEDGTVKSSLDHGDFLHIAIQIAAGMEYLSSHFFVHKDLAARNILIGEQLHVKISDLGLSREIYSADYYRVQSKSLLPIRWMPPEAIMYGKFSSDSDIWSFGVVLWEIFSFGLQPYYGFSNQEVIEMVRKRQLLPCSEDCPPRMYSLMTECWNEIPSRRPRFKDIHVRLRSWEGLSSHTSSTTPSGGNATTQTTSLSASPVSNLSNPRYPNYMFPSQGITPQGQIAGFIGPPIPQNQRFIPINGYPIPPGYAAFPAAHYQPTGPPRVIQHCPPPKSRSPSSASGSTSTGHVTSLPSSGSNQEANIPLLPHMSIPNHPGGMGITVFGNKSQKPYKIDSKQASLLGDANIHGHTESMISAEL
Chain of human ROR1 (on the cell surface) (human) (Q01973 30-937): as above

B1: 3D8_HuC24: humanized anti-ROR1 antibody; VH SEQ ID NO:9, VL SEQ ID NO:10, human IgG1 heavy and kappa light chain constant regions (antibody, V domains shown)
VH: EVQLVESGGGLVQPGGSLRLSCAASGFTFSSYAMSWVRQAPGKGLEWVASINSGGSTYYPDSVKGRFTISRDNAKNSLYLQMNSLRAEDTAVYYCARVNYYGYGDYAMDYWGQGTLVTVSS
VL: DIQMTQSPSSLSASVGDRVTITCQASQDISNYLTWFQQKPGKSPKTLIHRANRLVTGVPSRFSGSGSGTDFTFTISSLQPEDIATYYCLQYDEFPYTFGGGTKVEIK
modifications: human IgG1 and kappa constant regions; 3D8_HuC24 VH; 3D8_HuC24 VL
kdis (human ROR1 ECD protein [1]): 0.0153 s⁻¹
kon (human ROR1 ECD protein [1]): 586000 M⁻¹ s⁻¹
affinity versus control antibody UC961 (human ROR1 ECD protein [1]; versus UC961): comparable

B5: 19F6_Hu35V1 (antibody, human IgG1, kappa, V domains shown)
VH: QVQLQESGPGLVKPSQTLSLTCTVSGYSITSDYAWNWIRQFPGKGLEWIGYISYSGSIRYNPSLKSRVTISRDTSKNQFSLKLSSVTAADTAVYYCARGEITYYFDYWGQGTLVTVSS
VL: ETTLTQSPAFMSATPGDKVTISCKASTSIDDDMNWYQQKPGEPPKLIISEGNTLRPGIPPRFSSSGYGTDFTFTINKIKSEDAATYYCLQSNDLPLTFGQGTKLEIKR
notes: Humanized anti-human ROR1 antibody, human IgG1/kappa, expressed in Expi293F cells and purified with Protein A
fold stronger affinity (KD) than control antibody UC961 (human ROR1 ECD protein [16]): 5.4 fold

B6: 19F6_Hu35V1: humanized anti-ROR1 antibody; VH SEQ ID NO:1, VL SEQ ID NO:2, human IgG1 heavy and kappa light chain constant regions (antibody, V domains shown)
VH: QVQLQESGPGLVKPSQTLSLTCTVSGYSITSDYAWNWIRQFPGKGLEWIGYISYSGSIRYNPSLKSRVTISRDTSKNQFSLKLSSVTAADTAVYYCARGEITYYFDYWGQGTLVTVSS
VL: ETTLTQSPAFMSATPGDKVTISCKASTSIDDDMNWYQQKPGEPPKLIISEGNTLRPGIPPRFSSSGYGTDFTFTINKIKSEDAATYYCLQSNDLPLTFGQGTKLEIK
modifications: human IgG1 and kappa constant regions; 19F6_Hu35V1 VH; 19F6_Hu35V1 VL
kdis (human ROR1 ECD protein [1]): 0.000863 s⁻¹
kon (human ROR1 ECD protein [1]): 538000 M⁻¹ s⁻¹
dissociation rate versus control antibody UC961 (as shown by the Kdis value) (human ROR1 ECD protein [1]; versus UC961): significantly slower

Other lines, results leading:

kdis (human ROR1 ECD protein [1]): 0.00242 s⁻¹
kon (human ROR1 ECD protein [1]): 241000 M⁻¹ s⁻¹
affinity versus control antibody UC961 (human ROR1 ECD protein [1]; versus UC961): comparable
B2: 38F8_Hu57: humanized anti-ROR1 antibody; VH SEQ ID NO:17, VL SEQ ID NO:18, human IgG1 heavy and kappa light chain constant regions (antibody, V domains shown)
VH: EVQLVESGGGLVQPGGSLRLSCAASGFTFSNYAMSWVRQAPEKRLEWVASISSGGPTYYPDSVKGRFTVSRDNSKNTLYLQMNSLRAEDTAVYYCARGYRYDVNWYFDVWGAGTMVTVSS
VL: DIQMTQSPSSLSASVGDRVTITCQASQDISNYLTWFQQKPGKSPKTLIHRANRLVTGVPSRFSGSGSGTDYTFTISSLQPEDIAIYYCLQYDEFPYTFGGGTKVEIK
modifications: human IgG1 and kappa constant regions; 38F8_Hu57 VH; 38F8_Hu57 VL

positive rate [2]: 100%
B3: Anti-human ROR1 antibody D10 (antibody, from another filing, V domains shown)
VH: QVQLKESGPGLVAPSQTLSITCTVSGFSLTSYGVHWVRQPPGKGLEWLGVIWAGGFTNYNSALKSRLSISKDNSKSQVLLKMTSLQTDDTAMYYCARRGSSYSMDYWGQGTSVIVSS
VL: EIVLSQSPAITAASLGQKVTITCSASSNVSYIHWYQQRSGTSPRPWIYEISKLASGVPVRFSGSGSGTSYSLTISSMEAEDAAIYYCQQWNYPLITFGSGTKLEIQ

EC50 [3]: 0.46 nM
EC50 [4]: 0.3 nM
EC50 [5]: 0.21 nM
EC50 [6]: 0.31 nM
EC50 [7]: 0.14 nM
EC50 [8]: 0.06 nM
EC50 [9]: 0.16 nM
Kd (human ROR1 ECD protein [10]): 8.73 nM
koff (human ROR1 ECD protein [10]): 0.0112 s⁻¹
kon (human ROR1 ECD protein [10]): 1.26e+06 M⁻¹ s⁻¹
EC50 [11]: 0.36 nM
EC50 [12]: 0.2 nM
EC50 [13]: 1.07 nM
EC50 [14]: 0.21 nM
EC50 [15]: 0.37 nM
B4: Anti-ROR1 antibody UC961 (antibody, V domains shown)
VH: QVQLQESGPGLVKPSQTLSLTCTVSGYAFTAYNIHWVRQAPGQGLEWMGSFDPYDGGSSYNQKFKDRLTISKDTSKNQVVLTMTNMDPVDTATYYCARGWYYFDYWGHGTLVTVSS
VL: DIVMTQTPLSLPVTPGEPASISCRASKSISKYLAWYQQKPGQAPRLLIYSGSTLQSGIPPRFSGSGYGTDFTLTINNIESEDAAYYFCQQHDESPYTFGEGTKVEIK
